# Test results: patent US20210340273A1 (INHLBRX, published 2021)
# Substitutions are numbered along the chain they refer to.
# B1: hz12E9v5 sdAb-Fc (Fc fusion)
# chain: EVQLVESGGGEVQPGGSLRLSCAASRRPFSSKTMAWFRQAPGKEREFVAAVRWIGGATRYTESVKGRFTISRDNAKNTLYLQMSSLRAEDTAVYYCAAGQAWGTKFTDYSDWGQGTLVTVKP
# notes: Humanized variant of 12E9, linked to a human Fc; not shown: human Fc
# B2: hz12E9v7 sdAb-Fc (Fc fusion)
# chain: B1 chain with E62D, T69S, R72K, L79V
# notes: as for B1
# B3: hz12E9v8 sdAb-Fc (Fc fusion)
# chain: B1 chain with T61A, K76I, L79V, S84N, R87K, A88S
# notes: as for B1
# B4: cx3253, 5T4-targeted constrained CD3 engaging construct with a 41BB binding domain (bispecific antibody)
# chain 1: QVQLVQSGGGLVQAGGSLRLSCAASRRPFSSKTMAWFRQTPGKEREFVAAVRWIGGATRYTDSVKGRFSISKDNAINTVYLQMNSLKSEDTAVYYCAAGQAWGTKFTDYSDWGQGTQVTVKPDKTHTCPPCPAPELLGGPSVFLFPPKPKDTLMISRTPEVTCVVVDVSHEDPEVKFNWYVDGVEVHNAKTKPREEQYNSTYRVVSVLTVLHQDWLNGKEYKCKVSNKALPAPIEKTISKAKGQPREPQVYTLPPCRDELTKNQVSLWCLVKGFYPSDIAVEWESNGQPENNYKTTPPVLDSDGSFFLYSKLTVDKSRWQQGNVFSCSVMHEALHNHYTQKSLSLSPTGGSGGGGIEPDIGGSGGSEVQLVESGGGLVQPGGSLRLSCAASGFTFNTYAMNWVRQAPGKCLEWVARIRSKYNNYATYYADSVKGRFTISRDDAKNTLYLQMSSLRAEDTAVYYCVRHGNFGNSYVSWFAYWGQGTLVTVKPQVQLVQSGGGLVQAGASLRLSCVASGRTRSLRTMAWFRQAPGKERIFVAAISWRSDSTYYADSVKGRFTISRDNAKNTAYLQMNTLKPEDTAVYYCAAGGGWLATTPDEYTYWGQGTLVTVKP
# chain 2: not shown
# notes: Heterodimeric multispecific construct (5T4 x CD3 x 41BB)
# B5: 4D3 sdAb-Fc (Fc fusion, not shown: a dimerising Fc or GST)
# chain: QVQLQESGGGLVQAGGSLRLSCAASRRPFSSKTMAWFRQTPGKEREFVAAVRWIGGATRYTDSVKGRFSISKDNAINTVYLQTNSLKSEDTAVYYCAAGQTWGTKFTDYSDWGQGTLVTVKP
# notes: Camelid derived sdAb tested as sdAb-Fc
# B6: 12E9 sdAb-Fc (Fc fusion, not shown: a dimerising Fc or GST)
# chain: B5 chain with Q5V, E6Q, T83M, T101A, L117Q
# notes: Camelid derived sdAb tested as sdAb-Fc; also called L12E9; 12E9-Fc
# B7: hz16G10v7 sdAb-Fc (Fc fusion)
# chain: EVQLVESGGGEVQPGGSLRLSCAASGRPFSSSAMGWFRQAPGKERETVAAVSRNTGSSYYAESVKGRFTISRDNAKNTVYLQMSSLRAEDTAVYYCAARSAAYSRSSETYTEKHDYTYWGQGTLVTVKP
# notes: Humanized variant of 16G10, linked to a human Fc; not shown: human Fc
# B8: hz16G10v10 sdAb-Fc (Fc fusion)
# chain: B7 chain with T55A, E62D, S63F
# notes: as for B7
# B9: 14B5 sdAb-Fc (Fc fusion, not shown: a dimerising Fc or GST)
# chain: QVQLVQSGGGLVQAGDSLTLSCAVSERPFGTYAMGWFRQAPGRERDLVAAVSRNGGASQYGDSVKGRFSISRDNIKNTMYLQMNSLKPEDTAVYYCAARSAAYSRSSEVYTGKDEYYYWGQGTQVTVKP
# notes: Camelid derived sdAb tested as sdAb-Fc; also called L14B5
# B10: cx3497, 5T4-targeted constrained CD3 engaging construct with a 41BB binding domain (bispecific antibody)
# chain 1: QVQLVQSGGGLVQAGGSLRLSCAASRRPFSSKTMAWFRQTPGKEREFVAAVRWIGGATRYTDSVKGRFSISKDNAINTVYLQMNSLKSEDTAVYYCAAGQAWGTKFTDYSDWGQGTQVTVKPDKTHTCPPCPAPELLGGPSVFLFPPKPKDTLMISRTPEVTCVVVDVSHEDPEVKFNWYVDGVEVHNAKTKPREEQYNSTYRVVSVLTVLHQDWLNGKEYKCKVSNKALPAPIEKTISKAKGQPREPQVYTLPPCRDELTKNQVSLWCLVKGFYPSDIAVEWESNGQPENNYKTTPPVLDSDGSFFLYSKLTVDKSRWQQGNVFSCSVMHEALHNHYTQKSLSLSPTGGSGGGGIEPDIGGSGGSEVQLVESGGGLVQPGGSLRLSCAASGFTFNTYAMNWVRQAPGKCLEWVARIRSKYNNYATYYADSVKGRFTISRDDAKNTLYLQMSSLRAEDTAVYYCVRHGNFGNSYVSWFAYWGQGTLVTVKPQVQLLQSGGGLVQAGGSLILSCAVSGRPFSSSAMGWFRQAPGKERETVAAVSRNGGSSYYADFVKGRFTISRDNDKNTVYLQMNSLKPEDTAVYYCAARSAAYSRSSETYTEKHDYTYWGQGTQVTVKP
# chain 2: not shown
# notes: as for B4
# B11: 16G10 sdAb-Fc (Fc fusion, not shown: a dimerising Fc or GST)
# chain: QVQLLQSGGGLVQAGGSLILSCAVSGRPFSSSAMGWFRQAPGKERETVAAVSRNGGSSYYADFVKGRFTISRDNDKNTVYLQMNSLKPEDTAVYYCAARSAAYSRSSETYTEKHDYTYWGQGTQVTVKP
# notes: Camelid derived sdAb tested as sdAb-Fc; also called L16G10
# B12: 14F4 sdAb-Fc (Fc fusion, not shown: a dimerising Fc or GST)
# chain: QVQLQESGGGLMQAGDSLRLSCVVSGVTWNSYTMAWFRQAPGKEREFVAAIRWTVDTTYYADFVKGRFTISRDYAKKTMYLQMNNLKPEDAAVYYCAVGRKWPKADDYWGQGTLVTVKP
# notes: as for B5
# B13: 7E1 sdAb-Fc (Fc fusion, not shown: a dimerising Fc or GST)
# chain: QVQLVQSGGGLVQAGASLRLSCVASGRTRSLRTMAWFRQAPGKERIFVAAISWRSDSTYYADSVKGRFTISRDNAKNTAYLQMNTLKPEDTAVYYCAAGGGWLATTPDEYTYWGQGTLVTVKP
# notes: as for B5
# B14: hz14B5v2 sdAb-Fc (Fc fusion)
# chain: EVQLVESGGGEVQPGGSLRLSCAASERPFGTYAMGWFRQAPGKERDLVAAVSRNGGASQYAESVKGRFTISRDNAKNTLYLQMSSLRAEDTAVYYCAARSAAYSRSSEVYTGKDEYYYWGQGTLVTVKP
# notes: Humanized variant of 14B5, linked to a human Fc; not shown: human Fc
# B15: hz14B5v18 sdAb-Fc (Fc fusion)
# chain: B14 chain with G30S, T31S, G55A, Q59Y, L79V
# notes: as for B14
# B16: hz14B5v20 sdAb-Fc (Fc fusion)
# chain: B14 chain with E26G, G30S, T31S, G55A, Q59Y, L79V
# notes: as for B14
# B17: hz14B5v16 sdAb-Fc (Fc fusion)
# chain: B14 chain with G55A, A61G, S63F, L79M
# notes: as for B14
# B18: hz14B5v19 sdAb-Fc (Fc fusion)
# chain: B14 chain with E26G, G55A, Q59Y, L79V
# notes: as for B14
# Assays:
# [1] = biological target: T1, human 5T4 (trophoblast glycoprotein), endogenous on the cell surface (human, UniProt Q13641 32-420); assay: flow cytometry (FL4H median), sdAb-Fc titrated on 5T4-positive T47D cells
# T1 construct: also called TPBG; 5T4 oncofetal antigen
# T1 sequence: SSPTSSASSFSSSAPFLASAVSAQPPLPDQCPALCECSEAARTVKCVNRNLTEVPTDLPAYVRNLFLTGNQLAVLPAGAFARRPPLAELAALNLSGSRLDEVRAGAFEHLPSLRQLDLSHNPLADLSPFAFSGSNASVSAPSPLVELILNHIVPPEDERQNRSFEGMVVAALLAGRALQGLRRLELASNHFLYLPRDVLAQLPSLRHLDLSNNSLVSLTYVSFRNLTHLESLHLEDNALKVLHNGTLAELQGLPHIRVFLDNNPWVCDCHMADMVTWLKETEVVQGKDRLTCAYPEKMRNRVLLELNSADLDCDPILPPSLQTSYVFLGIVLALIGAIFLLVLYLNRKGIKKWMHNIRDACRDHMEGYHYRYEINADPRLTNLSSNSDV
# Description: (§1) Specificity and relative affinity were assessed for purified sdAb-Fcs on 5T4-expressing cells. Binding of 5T4-sdAb-Fc fusion proteins was assessed by flow cytometry using 5T4-expressing cells. A titration series of the fusion protein was incubated with the 5T4-expressing cell lines (approximately 2.5×10⁴ to 5×10⁴ cells/well) for 30 minutes at 4 degrees Celsius in FACS Buffer (PBS 1% BSA, 0.1% NaN₃ pH 7.4) in 96 well plates. Following three wash steps in FACS buffer, an APC-conjugated anti-human Fcγ specific secondary antibody (Jackson ImmunoResearch) was added and incubated for 30 minutes at 4 degrees Celsius. Following three additional wash steps in FACS buffer bound antibody was detected via flow cytometry (IQue Intellicyte).
# (§2) Humanized variant of the 5T4 sdAbs were tested for their ability to bind 5T4 expressing cells substantially as described in Example 2, and binding was compared to the parental sdAb. 5T4 expressing T47D cells were used in these studies. Results are shown in FIGS. 2A-2F, which confirm binding of the humanized variants. In some cases, binding was increased compared to the parental sdAb.
# [2] = biological target: T1, human 5T4 (trophoblast glycoprotein), …; assay: printed as Affinity 5T4; apparent affinity from flow cytometry titration on Ovcar-5 cells
# Description: Binding of exemplary 5T4-targeting constrained CD3 engaging constructs set forth in Table E3 to CD3 on the surface of primary T cells and 5T4 expressing cells (Ovcar-5) was assessed by flow cytometry. The T cells were primary T-cells that were negatively enriched from PBMCs isolated from healthy human donor leukopaks. Bound construct was detected with fluorophore-conjugated secondary antibodies specific for the human Fc (anti-human IgG APC secondary antibody) and binding was measured by flow cytometry. Cells incubated with secondary antibody only served as negative controls. The results, from flow cytometry histograms displaying normalized cell counts versus fluorescence at 200 nM of each construct, are shown in FIG. 4A (cx3253), FIG. 4B (cx3264), FIG. 4C (cx3497), FIG. 4D (cx3499), FIG. 4E (cx3547), FIG. 4F (cx3546), FIG. 4G (cx4224), FIG. 4H (cx4913), FIG. 4I (cx3265), […] (cx4912), FIG. 4K (cx3262), FIG. 4L (cx4911), and FIG. 4M (cx4910). […] However, as shown in the top right and bottom panels of each of the figures, the same constructs were not able to bind to T cells in isolation.
# Table E4 summarizes the affinity of exemplary molecules for 5T4 or CD3, as determined from flow cytometry, in these studies.
# [3] = biological target: T1, human 5T4 (trophoblast glycoprotein), …; assay: flow cytometry (FL4), sdAb-Fc titrated on HEK-293 freestyle (293FS) cells endogenously expressing 5T4
# Description: FIGS. 1A-B depict the ability of various single domain antibodies targeting 5T4 to bind cell surface 5T4. Binding was assessed by flow cytometry on HEK-293 freestyle cells endogenously expressing 5T4.
# as §1
# [4] = biological target: T1, human 5T4 (trophoblast glycoprotein), …; assay: flow cytometry (FL4H median), sdAb-Fc titrated on 5T4-positive T47D cells; remark: listed apart in the source
# Description: as §1, §2
# [5] = biological target: T1, human 5T4 (trophoblast glycoprotein), …; assay: flow cytometry, sdAb-Fc on 5T4 expressing T47D cells
# [6] = biological target: T1, human 5T4 (trophoblast glycoprotein), …; assay: flow cytometry (FL4H median), sdAb-Fc titrated on 5T4-positive T47D cells; remark: listed apart in the source
# Description: as §1, §2
# [7] = biological target: T1, human 5T4 (trophoblast glycoprotein), …; assay: flow cytometry on 5T4-positive OVCAR5 (Ovcar-5) cells, anti-human IgG secondary; titration
# Description: FIGS. 4A-4M depict the binding of various 5T4-target constrained CD3 engaging constructs to the 5T4 positive Ovcar-5 cell line (top left) and the lack of binding to primary human T-cells (top right). […] Binding was assessed by flow cytometry using an anti-human IgG APC secondary antibody. The histograms display the normalized cell counts vs fluorescence at 200 nM of each construct.
# Binding of exemplary 5T4-targeting constrained CD3 engaging constructs set forth in Table E3 to CD3 on the surface of primary T cells and 5T4 expressing cells (Ovcar-5) was assessed by flow cytometry. The T cells were primary T-cells that were negatively enriched from PBMCs isolated from healthy human donor leukopaks. Bound construct was detected with fluorophore-conjugated secondary antibodies specific for the human Fc (anti-human IgG APC secondary antibody) and binding was measured by flow cytometry. Cells incubated with secondary antibody only served as negative controls. […] The results, from flow cytometry histograms displaying normalized cell counts versus fluorescence at 200 nM of each construct, are shown in FIG. 4A (cx3253), FIG. 4B (cx3264), FIG. 4C (cx3497), FIG. 4D (cx3499), FIG. 4E (cx3547), FIG. 4F (cx3546), FIG. 4G (cx4224), FIG. 4H (cx4913), FIG. 4I (cx3265), […] (cx4912), FIG. 4K (cx3262), FIG. 4L (cx4911), and FIG. 4M (cx4910). […]
binder,measurement,setting,value
B1,EC50 (read off the curve),[1],~100 pM
B2,EC50 (read off the curve),[1],~100 pM
B3,EC50 (read off the curve),[1],~100 pM
B4,Kd,[2],120 pM
B5,EC50 (read off the curve),[3],~200 pM
B6,EC50 (read off the curve),[4],~200 pM
same,EC50 (read off the curve),[1],~100 pM
same,EC50 (read off the curve),[3],~100 pM
B7,binding result,[5],binds
B8,binding result,[5],binds
B9,EC50 (read off the curve),[4],~400 pM
same,EC50 (read off the curve),[6],~800 pM
same,EC50 (read off the curve),[3],~500 pM
B10,Kd,[2],646 pM
same,EC50 (read off the curve),[7],~700 pM
B11,EC50 (read off the curve),[4],~900 pM
same,EC50 (read off the curve),[3],~1000 pM
B12,EC50 (read off the curve),[3],~1000 pM
B13,EC50 (read off the curve),[3],~200 pM
B14,binding result,[5],binds
B15,binding result,[5],binds
B16,binding result,[5],binds
B17,EC50 (read off the curve),[6],~2000 pM
B18,binding result,[5],binds
